# Data: article PMC6127294, “Jungle Express is a versatile repressor system for tight transcriptional control” (Nature Communications, 2018)
# Substitutions are numbered along the chain they refer to.
# T1: EilR-Y03A/R32A (UniProt A0A346M331 1-192, Y3A;R32A)
# T1 sequence: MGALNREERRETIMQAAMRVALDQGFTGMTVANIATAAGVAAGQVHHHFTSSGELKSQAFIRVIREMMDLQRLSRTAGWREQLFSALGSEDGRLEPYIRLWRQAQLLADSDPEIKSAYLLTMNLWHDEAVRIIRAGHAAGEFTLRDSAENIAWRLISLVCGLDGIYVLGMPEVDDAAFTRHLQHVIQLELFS
# T2: EilR-H47A (UniProt A0A346M331 1-192, H47A)
# T2 sequence: T1 sequence with A3Y, A32R, H47A
# T3: EilR-R32A (UniProt A0A346M331 1-192, R32A)
# T3 sequence: T1 sequence with A3Y
# T4: EilR (UniProt A0A346M331 1-192)
# T4 sequence: T1 sequence with A3Y, A32R
# B1: eilOc 28-mer duplex (dsDNA)
# DNA 1: AAAAAGTTGGACACGTGTCCAACTTTCC
# DNA 2: GGAAAGTTGGACACGTGTCCAACTTTTT
# B2: eilO2 (dsDNA)
# DNA 1: CGCAAACTGGACGGATGTCCAGCTTTGT
# DNA 2: ACAAAGCTGGACATCCGTCCAGTTTGCG
# Key:
# EilR-Y03A/R32A = molecular target: T1, EilR-Y03A/R32A; assay: EMSA; up to 8:1 protein:DNA; 10 mM MgCl2; Operator EMSA: 30 mM Tris pH 7.7, 100 mM NaCl, 25 mM arginine, 25 mM glutamine, 5 mM MgCl2, RT 1.5 h; mutant EMSA: 50 mM Tris pH 8.0, 150 mM NaCl, 50 mM arginine, 50 mM glutamine, 10 mM MgCl2, 0.5 mM DTT, RT 30 min; 2% agarose TBE gels; conditions: protein: recombinant; chain copies: 2
# EilR-H47A = molecular target: T2, EilR-H47A; assay: as above; conditions: protein: recombinant; chain copies: 2
# EilR-R32A = molecular target: T3, EilR-R32A; assay: as above; conditions: protein: recombinant; chain copies: 2
# EilR [1] = molecular target: T4, EilR; assay: EMSA; complex appears from 0.125:1 EilR:DNA; 10 mM MgCl2; Operator EMSA: 30 mM Tris pH 7.7, 100 mM NaCl, 25 mM arginine, 25 mM glutamine, 5 mM MgCl2, RT 1.5 h; mutant EMSA: 50 mM Tris pH 8.0, 150 mM NaCl, 50 mM arginine, 50 mM glutamine, 10 mM MgCl2, 0.5 mM DTT, RT 30 min; 2% agarose TBE gels; conditions: protein: recombinant; tags: His8 removed with TEV protease; chain copies: 2
# EilR [2] = molecular target: T4, EilR; assay: EMSA; lower affinity than eilOc; 5 mM MgCl2; Operator EMSA: 30 mM Tris pH 7.7, 100 mM NaCl, 25 mM arginine, 25 mM glutamine, 5 mM MgCl2, RT 1.5 h; mutant EMSA: 50 mM Tris pH 8.0, 150 mM NaCl, 50 mM arginine, 50 mM glutamine, 10 mM MgCl2, 0.5 mM DTT, RT 30 min; 2% agarose TBE gels; conditions: protein: recombinant; tags: His8 removed with TEV protease; chain copies: 2
Binder,binding result (EilR-Y03A/R32A),binding result (EilR-H47A),binding result (EilR-R32A),binding result (EilR [1]),binding result (EilR [2])
B1,no binding,no binding,no binding,binds,–
B2,–,–,–,–,binds
